According to patent US20040224408A1, “THAP proteins as nuclear receptors for chemokines and roles in transcriptional regulation, cell proliferation and cell differentiation” (published 2004):

T1: GST-THAP1 fusion protein (pGEX-2T-THAP1) (human, UniProt Q5RCE4 1-213 (Pongo abelii entry))
T1 construct: Expressed in E. coli DH5alpha and immobilized on glutathione sepharose; also called GST-THAP1 wild-type; not shown: Glutathione S-transferase (GST) encoded by the pGEX-2T prokaryotic expression vector (Amersham Pharmacia Biotech); N-ter
T1 sequence: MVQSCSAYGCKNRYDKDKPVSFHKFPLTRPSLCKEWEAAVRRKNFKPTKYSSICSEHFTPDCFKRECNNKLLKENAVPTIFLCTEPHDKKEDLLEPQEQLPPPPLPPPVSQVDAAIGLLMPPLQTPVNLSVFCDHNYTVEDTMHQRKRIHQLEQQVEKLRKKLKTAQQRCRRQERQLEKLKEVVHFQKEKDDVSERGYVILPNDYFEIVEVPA

T2: human THAP1 (THanatos (death)-Associated Protein-1), full length (human, UniProt Q9NVV9 1-213)
T2 construct: also called hTHAP1; FLJ10477
T2 sequence: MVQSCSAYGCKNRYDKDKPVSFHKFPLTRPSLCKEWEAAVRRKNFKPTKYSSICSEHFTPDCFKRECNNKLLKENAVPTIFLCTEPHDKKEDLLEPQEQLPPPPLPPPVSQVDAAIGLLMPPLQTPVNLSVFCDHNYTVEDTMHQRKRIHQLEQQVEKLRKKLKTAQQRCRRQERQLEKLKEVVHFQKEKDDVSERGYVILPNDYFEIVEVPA

T3: human chemokine SLC/CCL21, mature form (amino acids 24-134) (human, UniProt O00585 24-134)
T3 construct: also called SLC/6Ckine; SLC/CCL21 wild type
T3 sequence: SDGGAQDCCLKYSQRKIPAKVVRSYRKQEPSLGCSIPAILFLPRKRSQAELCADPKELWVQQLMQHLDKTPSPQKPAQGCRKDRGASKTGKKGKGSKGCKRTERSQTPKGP


Legend:
[1] = target: T4, Glutathione S-transferase (GST) control protein (pGEX-2T) (UniProt P08515 1-218 = GST); test: GST pull-down, immobilized GST control, in vitro translated 35S-labelled IFNγ
T4 construct: Negative control immobilized on glutathione sepharose; also called GST beads; immobilized GST alone
T4 sequence (P08515 whole entry): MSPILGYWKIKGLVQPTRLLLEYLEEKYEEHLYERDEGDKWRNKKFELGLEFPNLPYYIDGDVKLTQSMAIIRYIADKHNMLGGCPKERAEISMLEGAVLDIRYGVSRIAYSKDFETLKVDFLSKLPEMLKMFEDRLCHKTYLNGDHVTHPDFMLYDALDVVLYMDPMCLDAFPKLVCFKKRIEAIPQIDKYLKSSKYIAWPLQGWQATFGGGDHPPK
Protocol: In vitro-translated chemokines were generated with the TNT-coupled reticulocyte lysate system (Promega, Madison, Wis., USA) using as templates pGBKT7-CCL21, -CCL19, -CXCL9, -CXCL10 and CXCL11 chemokine vectors (see Example 32) or pCMV-SPORT6-CCL5 plasmid (Image clone No. 4185200). In vitro-translated IFNγ cytokine was generated similarly using as template plasmid pGBKT7-IFNγ. A 25 μvolume of ³⁵S-labelled chemokine was incubated with immobilized GST-THAP1 or GST proteins overnight at 4° C., in the following binding buffer: 10 mM NaPO4 pH 8.0, 140 mM NaCl, 3 mM MgCl₂, 1 mM dithiothreitol (DTT), 0.05% NP40, and 0.2 mM phenylmethyl sulphonyl fluoride (PMSF), 1 mM Na vanadate, 50 mM β-glycerophosphate, 25 μg/ml chymotrypsine, 5 μg/ml aprotinin, and 10 μg/ml leupeptin. Beads were then washed 5 times in 1 ml binding buffer. Bound proteins were eluted with 2×Laemmli SDS-PAGE sample buffer, fractionated by 10% SDS-PAGE and visualized by fluorography using Amplify (Amersham Pharmacia Biotech). GST/THAP1 specifically bound to chemokines CCL21, CCL19, CCL5, CXCL9, CXCL10 and CXCL11 but not cytokine IFNγ (FIGS. 19 and 20). […] CXCL10 also bound to immobilized GST-THAP1 (indicated by ++ in the column labelled “In vitro binding to GST-THAP1”).

[2] = target: T1, GST-THAP1 fusion protein (pGEX-2T-THAP1); test: GST pull-down, immobilized GST-THAP1, in vitro translated 35S-labelled IFNγ
Protocol: To confirm the interaction observed in yeast two-hybrid system, we performed in vitro GST pull down assays. THAP1, expressed as a GST-tagged fusion protein and immobilized on glutathione sepharose, was incubated with radiolabeled chemokines that were translated in vitro.
In vitro-translated chemokines were generated with the TNT-coupled reticulocyte lysate system (Promega, Madison, Wis., USA) using as templates pGBKT7-CCL21, -CCL19, -CXCL9, -CXCL10 and CXCL11 chemokine vectors (see Example 32) or pCMV-SPORT6-CCL5 plasmid (Image clone No. 4185200). In vitro-translated IFNγ cytokine was generated similarly using as template plasmid pGBKT7-IFNγ. A 25 μvolume of ³⁵S-labelled chemokine was incubated with immobilized GST-THAP1 or GST proteins overnight at 4° C., in the following binding buffer: 10 mM NaPO4 pH 8.0, 140 mM NaCl, 3 mM MgCl₂, 1 mM dithiothreitol (DTT), 0.05% NP40, and 0.2 mM phenylmethyl sulphonyl fluoride (PMSF), 1 mM Na vanadate, 50 mM β-glycerophosphate, 25 μg/ml chymotrypsine, 5 μg/ml aprotinin, and 10 μg/ml leupeptin. Beads were then washed 5 times in 1 ml binding buffer. Bound proteins were eluted with 2×Laemmli SDS-PAGE sample buffer, fractionated by 10% SDS-PAGE and visualized by fluorography using Amplify (Amersham Pharmacia Biotech). GST/THAP1 specifically bound to chemokines CCL21, CCL19, CCL5, CXCL9, CXCL10 and CXCL11 but not cytokine IFNγ (FIGS. 19 and 20). […]

human THAP1 (THanatos …) [3] = target: T2, human THAP1 (THanatos …); test: yeast two-hybrid, pGADT7-THAP1 with pGBKT7-IFNγ
From the text: […]

[4] = target: T1, GST-THAP1 fusion protein (pGEX-2T-THAP1); test: GST pull-down, immobilized GST-THAP1, in vitro translated 35S-labelled mutant
Protocol: To confirm the results obtained in yeast, THAP1 mutants were also tested in in vitro GST pull down assays. Wild type THAP1 expressed as a GST-tagged fusion protein and immobilized on glutathione sepharose (as described in example 16), was incubated with radiolabeled in vitro translated THAP1 mutants. In vitro-translated THAP1 mutants were generated with the TNT-coupled reticulocyte lysate system (Promega, Madison, Wis., USA) using pGADT7-THAP1-C1, -C2, -C3, -N1, -N2 or -N3 vector as template. 25 μl of each ³⁵S-labelled THAP1 mutant was incubated with immobilized GST or GST-THAP1 wild-type protein overnight at 4° C., in the following binding buffer: 10 mM NaPO4 pH 8.0, 140 mM NaCl, 3 mM MgCl2, 1 mM dithiothreitol (DTT), 0.05% NP40, and 0.2 mM phenylmethyl sulphonyl fluoride (PMSF), 1 mM Na Vanadate, 50 mM β Glycerophosphate, 25 μg/ml chimotrypsine, 5 μg/ml aprotinin, 10 μg/ml Leupeptin. Beads were then washed 5 times in 1 ml binding buffer. Bound proteins were eluted with 2×Laemmli SDS-PAGE sample buffer, fractionated by 10% SDS-PAGE and visualized by fluorography using Amplify (Amersham Pharmacia Biotech). As expected, THAP1-C1, -C2, -C3, -and -N3 interacted with GST/THAP1 (FIG. 16B).

human THAP1 (THanatos …) [5] = target: T2, human THAP1 (THanatos …); test: yeast two-hybrid, pGADT7-THAP1 mutant with pGBKT7-THAP1 wild-type
Protocol: Two-hybrid interaction between THAP1 mutants and THAP1 wild type was tested by cotransformation of AH109 with pGADT7-THAP1-C1, -C2, -C3, -N1, -N2 or -N3 and pGBKT7-THAP1 wild-type and selection of transformants by His and Ade double auxotrophy according to manufacturer's instructions ([…] two-hybrid system 3, Clontech).

[6] = target: T3, human chemokine SLC/CCL21, mature form …; test: yeast two-hybrid, pGADT7-THAP1 mutant with pGBKT7-SLC/CCL21
Protocol: Two-hybrid interaction between THAP1 mutants and chemokine SLC/CCL21 was tested by cotransformation of AH109 with pGADT7-THAP1-C1, -C2, -C3, -N1, -N2 or -N3 and pGBKT7-SLC/CCL21 and selection of transformants by His and Ade double auxotrophy according to manufacturer's instructions ([…] two-hybrid system 3, Clontech). pGBKT7-SLC/CCL21 vector was generated by subcloning the BamHI SLC/CCL21 fragment from pGBT9-SLC (see example 1) into the unique BamHI cloning site of vector pGBKT7 (Clontech).

Row | binding result [1] | binding result [2] | binding result [4] | binding result [6] | Binder | binding result (human THAP1 (THanatos …) [3]) | binding result (human THAP1 (THanatos …) [5])
1 | no binding | no binding | – | – | human cytokine IFNγ (amino acids 21-166) (ligand, Negative control; The range is stated on the GenBank entry; Tested as a Gal4-BD fusion (pGBKT7-IFNγ) and as in vitro translated 35S-labelled protein from that vector; also called interferon gamma; hIFNγ) CYCQDPYVKEAENLKKYFNAGHSDVADNGTLFLGILKNWKEESDRKIMQSQIVSFYFKLFKNFKDDQSIQKSVETIKEDMNVKFFNSNKKKRDDFEKLTNYSVTDLNVQRKAIHELIQVMAELSPAAKTGKRKRSQMLFQGRRASQ | no binding | –
2 | – | – | no binding | no binding | THAP1-N1 deletion mutant (amino acids 1-90) (other, Tested as a Gal4-BD or Gal4-AD fusion, as in vitro translated 35S-labelled protein and as an EGFP fusion) MVQSCSAYGCKNRYDKDKPVSFHKFPLTRPSLCKEWEAAVRRKNFKPTKYSSICSEHFTPDCFKRECNNKLLKENAVPTIFLCTEPHDKK | – | no binding
